Experimental data as given in EP3433280B1 (F. Hoffmann-La Roche AG, dated 2023).

Target: T1, HER1 extracellular domain (human, UniProt P00533 25-645)
T1 construct: extracellular domain; also called HER1 coated chip surface
Experiment: SPR (Biacore T100), HER1 extracellular domain amine-coupled to CM5, antibody injected at 3.125-50 nM, 1:1 Langmuir model

Kd: 1 nM
B1: HER1-binding IgG1 antibody GA201 (antibody, V domains shown)
VH: QVQLVQSGAEVKKPGSSVKVSCKASGFTFTDYKIHWVRQAPGQGLEWMGYFNPNSGYSTYAQKFQGRVTITADKSTSTAYMELSSLRSEDTAVYYCARLSPGGYYVMDAWGQGTTVTVSS
VL: DIQMTQSPSSLSASVGDRVTITCRASQGINNYLNWYQQKPGKAPKRLIYNTNNLQTGVPSRFSGSGSGTEFTLTISSLQPEDFATYYCLQHNSFPTFGQGTKLEIKR
notes: IgG1, produced in 293-F cells; also called GA201 parental unmasked antibody; anti HER1 antibody GA201
